According to article PMC5382584, “In search of tail-anchored protein machinery in plants: reevaluating the role of arsenite transporters” (Scientific Reports, 2017):
“And” between values parts separate entries of the source, which are not always exact repeats. Equal entries are not always repeated.

Molecular target: the molecule itself
Experiment: SEC; preparative size-exclusion chromatography of the purified protein, Superdex-200-16/600GL column; oligomeric state from peak positions

B1: Cr-ArsA2 (C. reinhardtii ArsA2), recombinant, purified (natural protein, UniProt A8IXB8 1-362, looked up)
chain: MAADMPDPTLQNVVDQKELKWIFVGGKGGVGKTTTSSSLAVALAESGTRNRVLIISTDPAHNLSDAFRQKFTKTPTLVNGFTNLFAMEVDPQPDIGEMEQLEWAQDSFLTELAGSIPGIDEAMSFAEVMKQVQTMDYDTIVFDTAPTGHTLRLLNFPTILEKGLSKLVALKGAMGGMMGQVTRMLGGMAGGGEGAADLPDQLLGKVEGMLDVVRKVSAQFKDPLLTTFVAVCIPEFLSLYETERLVQELAKFEIDCRNIVINQIIFPESVGGSRLLDARVRMQQKYLDQFYELYEDFHILQLPLLEEEVRGPEALKAFAVNLLKPYVPAPPTDAAARQAALVSEVAALKKRVAELEAALAKK
notes: ArsA2 of Chlamydomonas reinhardtii, full-length open reading frame, one ATPase domain; pET21 modified with a TEV site between the N-terminal 6His-tag and the polylinker; Seen as dimers and tetramers; also called Dimeric Cr-ArsA2; arsenite transporter ArsA2; source: E. coli BL21 (DE3), purified (Ni-NTA, size-exclusion chromatography)
- stoichiometry N: 2 and 4
